# US20170369935
# Tested on: T1, peptide LPETGGG bridging variable regions 4 and 5 (var 4-LPETGGG-var 5)
# T1 sequence: LPETGGG
substance,measurement,value
"sortase (Chen et. al, 2011)","kligation (sortase-catalyzed transpeptidation, loop opening on gel, room temperature)",kligation=11±1.3 min
